Assay [1] concerns the target T1, human CTLA-4, full-length, expressed on transfected Expi293 cells (human, UniProt P16410 36-223).
T1 construct: whole, on cells
Put plainly: flow cytometry, 100 nM, Expi293 cells with human CTLA-4.

The target of assay [2] is T2, human ICOS, full-length, expressed on transfected Expi293 cells (human, UniProt Q9Y6W8 21-199).
T2 construct: whole, on cells
T2 sequence (looked up): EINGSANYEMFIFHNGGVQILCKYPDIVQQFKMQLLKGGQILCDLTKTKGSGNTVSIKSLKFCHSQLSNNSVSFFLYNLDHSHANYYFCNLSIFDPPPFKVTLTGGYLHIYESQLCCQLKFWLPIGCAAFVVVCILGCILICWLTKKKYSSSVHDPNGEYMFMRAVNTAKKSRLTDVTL
Put plainly: flow cytometry, 100 nM, Expi293 cells with human ICOS.

The target in assay [3] is T3, human CD28, full-length, expressed on transfected Expi293 cells (human, UniProt P10747 19-220).
T3 construct: whole, on cells
As to the kind of experiment: flow cytometry, 100 nM, Expi293 cells with human CD28. (In general: In flow cytometry, cells or beads pass a laser one at a time.)

Experimental findings from patent US20230235012A1 (ALPINE IMMUNE SCIENCES, published 2023) are described below.

T1 sequence (P16410 36-223): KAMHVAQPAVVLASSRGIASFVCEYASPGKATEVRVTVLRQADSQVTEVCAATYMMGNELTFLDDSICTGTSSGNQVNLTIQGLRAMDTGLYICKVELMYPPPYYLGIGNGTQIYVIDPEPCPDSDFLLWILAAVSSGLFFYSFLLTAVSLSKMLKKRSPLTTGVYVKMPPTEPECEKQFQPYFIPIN

B1: variant ICOSL IgV-Fc fusion N52S/N57Y/Q100S (Fc fusion)
chain: DTQEKEVRAMVGSDVELSCACPEGSRFDLNDVYVYWQTSESKTVVTYHIPQSSSLEYVDSRYRNRALMSPAGMLRGDFSLRLFNVTPQDEQKFHCLVLSSSLGFQEVLSVEVTLHVAANFSVGSGGGGSEPKSSDKTHTCPPCPAPEAEGAPSVFLFPPKPKDTLMISRTPEVTCVVVDVSHEDPEVKFNWYVDGVEVHNAKTKPREEQYNSTYRVVSVLTVLHQDWLNGKEYKCKVSNKALPAPIEKTISKAKGQPREPQVYTLPPSREEMTKNQVSLTCLVKGFYPSDIAVEWESNGQPENNYKTTPPVLDSDGSFFLYSKLTVDKSRWQQGNVFSCSVMHEALHNHYTQKSLSLSPG
Consider B1, for which the MFI in assay [1] was found to be 205000 MFI; in assay [2], 224000 MFI; in assay [3] it was 161000 MFI. Besides, the results for the “MFI ratio to WT (ΔWT)” value in assay [1], in assay [2] and in assay [3] were 0.62 fold, 1.06 fold and 7.2 fold, respectively.

B2: variant ICOSL IgV-Fc fusion N52T/N57H/Q100S (Fc fusion)
chain: DTQEKEVRAMVGSDVELSCACPEGSRFDLNDVYVYWQTSESKTVVTYHIPQTSSLEHVDSRYRNRALMSPAGMLRGDFSLRLFNVTPQDEQKFHCLVLSSSLGFQEVLSVEVTLHVAANFSVGSGGGGSEPKSSDKTHTCPPCPAPEAEGAPSVFLFPPKPKDTLMISRTPEVTCVVVDVSHEDPEVKFNWYVDGVEVHNAKTKPREEQYNSTYRVVSVLTVLHQDWLNGKEYKCKVSNKALPAPIEKTISKAKGQPREPQVYTLPPSREEMTKNQVSLTCLVKGFYPSDIAVEWESNGQPENNYKTTPPVLDSDGSFFLYSKLTVDKSRWQQGNVFSCSVMHEALHNHYTQKSLSLSPG
Take B2: the results for the MFI in assay [1], in assay [2] and in assay [3] were 378000 MFI, 259000 MFI and 143000 MFI, respectively. In addition, the figures for the “MFI ratio to WT (ΔWT)” value in assay [1], in assay [2] and in assay [3] were 1.14 fold, 1.22 fold and 6.4 fold, respectively.

B3: variant ICOSL IgV-Fc fusion N52S/N57Y/Q100V (Fc fusion)
chain: DTQEKEVRAMVGSDVELSCACPEGSRFDLNDVYVYWQTSESKTVVTYHIPQSSSLEYVDSRYRNRALMSPAGMLRGDFSLRLFNVTPQDEQKFHCLVLSVSLGFQEVLSVEVTLHVAANFSVGSGGGGSEPKSSDKTHTCPPCPAPEAEGAPSVFLFPPKPKDTLMISRTPEVTCVVVDVSHEDPEVKFNWYVDGVEVHNAKTKPREEQYNSTYRVVSVLTVLHQDWLNGKEYKCKVSNKALPAPIEKTISKAKGQPREPQVYTLPPSREEMTKNQVSLTCLVKGFYPSDIAVEWESNGQPENNYKTTPPVLDSDGSFFLYSKLTVDKSRWQQGNVFSCSVMHEALHNHYTQKSLSLSPG
Turning to B3, the values for the MFI in assay [1], in assay [2] and in assay [3] were 305000 MFI, 219000 MFI and 126000 MFI, respectively. For the same molecule, the “MFI ratio to WT (ΔWT)” value in assay [1] was found to be 0.92 fold; in assay [2], 1.03 fold; in assay [3] it was 5.7 fold.

B4: variant ICOSL IgV-Fc fusion N52T/N57H/Q100A (Fc fusion)
chain: DTQEKEVRAMVGSDVELSCACPEGSRFDLNDVYVYWQTSESKTVVTYHIPQTSSLEHVDSRYRNRALMSPAGMLRGDFSLRLFNVTPQDEQKFHCLVLSASLGFQEVLSVEVTLHVAANFSVGSGGGGSEPKSSDKTHTCPPCPAPEAEGAPSVFLFPPKPKDTLMISRTPEVTCVVVDVSHEDPEVKFNWYVDGVEVHNAKTKPREEQYNSTYRVVSVLTVLHQDWLNGKEYKCKVSNKALPAPIEKTISKAKGQPREPQVYTLPPSREEMTKNQVSLTCLVKGFYPSDIAVEWESNGQPENNYKTTPPVLDSDGSFFLYSKLTVDKSRWQQGNVFSCSVMHEALHNHYTQKSLSLSPG
Consider B4, for which the MFI in assay [1] stood at 350000 MFI; in assay [2], 220000 MFI; in assay [3], 113000 MFI. The figures for the “MFI ratio to WT (ΔWT)” value in assay [1], in assay [2] and in assay [3] were 1.06 fold, 1.04 fold and 5 fold, respectively.
